Substrate in this data set: CC(=O)N[C@H]1[C@@H](O[C@H]2[C@@H](O)[C@@H](CO)O[C@@H](O[C@H]3[C@H](O)[C@@H](CO)O[C@@H](O[C@H]4[C@@H](O)[C@@H](CO)O[C@@H](Oc5ccc6c(C)cc(=O)oc6c5)[C@@H]4O)[C@@H]3NC(C)=O)[C@@H]2O[C@@H]2O[C@@H](C)[C@@H](O)[C@@H](O)[C@@H]2O)O[C@H](CO)[C@H](O)[C@@H]1O
The experiment in a line: Kinetic parameters of FpGalNAcDeAc_D1+2 (coupled fluorescence assay, MU release). It is filed as biochemical, Flavonifractor plautii. To be noted: other: 100 mM NaH2PO4, pH 7.4, 37° C. The method, then: All kinetic assays utilizing 4-methylumbelliferone as leaving group were performed through measurement of fluorescence. To avoid measurement errors based on the inner filter effect (Palmier 2007) standard curves were used to validate the linear range of the fluorophore.
Michaelis-Menten parameters were determined for A antigen subtype 1penta-MU in 100 mM NaH2PO4, pH 7.4 at 37° C. using the coupled assays described previously (Kwan 2015). The assay was modified to allow detection of cleavage of the subtype 1 (and later 4), by use of BgaC (Jeong 2009) instead of BgaA (Singh 2014) as β-galactosidase. In addition, since A antigen subtype 1penta-MU contains an additional galactose, the concentration of BgaC was increased to 0.2 mg/mL to compensate for its need to cleave both the Gal-β-1,3-B-GlcNAc-β-1,3-Gal-β-MU and Gal-β-MU. Further, FpGalactosaminidase was included to allow the cleavage of the galactosamine-containing intermediate. Reaction setup in 100 μl was 3 nM FpGalNacDeacetylase (4.52 nM FpGalNacDeAc_D1ext, 3.55 nM FpGalNacDeAc_D1+2) and 0.01 mg/mL FpGalactosaminidase, 0.1 mg/mL SpHex, AfcA, 0.2 mg/mL BgaC and varying concentrations of substrate (5 μM-2.5 mM). The reactions were run as a series of four with controls (no FpGalNacDeacetylase) as duplicates. The fluorescence signal (365/435 nm) resulting from MU release by hydrolysis was monitored on a Synergy H1™ plate reader (BioTek™) and converted to concentration using MU standard concentration curves determined under identical reaction conditions. Initial rates (μM/s) were determined and plotted in Grafit 7.0 to determine the kinetic parameters.

B1: Flavonifractor plautii GalNAcDeacetylase (FpGalNAcDeAc) truncation _D1 + 2 (Flavonifractor plautii) (protein)
chain: ADSSESALNKAPGYQDFPAYYSDSAHADDQVTHPDVVVLEEPWNGYRYWAVYTPNVMRISIYENPSIVASSDGVHWVEPEGLSNPIEPQPPSTRYHNCDADMVYNAEYDAMMAYWNWADDQGGGVGAEVRLRISYDGVHWGVPVTYDEMTRVWSKPTSDAERQVADGEDDFITAIASPDRYDMLSPTIVYDDFRDVFILWANNTGDVGYQNGQANFVEMRYSDDGITWGEPVRVNGFLGLDENGQQLAPWHQDVQYVPDLKEFVCISQCFAGRNPDGSVLHLTTSKDGVNWEQVGTKPLLSPGPDGSWDDFQIYRSSFYYEPGSSAGDGTMRVWYSALQKDTNNKMVADSSGNLTIQAKSEDDRIWRIGYAENSFVEMMRVLLDDPGYTTPALVSGNSLMLSAETTSLPTGDVMKLETSFAPVDTSDQVVKYTSSDPDVATVDEFGTITGVSVGSARIMAETREGLSDDLEIAVVENPYTLIPQSNMTATATSVYGGTTEGPASNVLDGNVRTIWHTNYAPKDELPQSITVSFDQPYTVGRFVYTPRQNGTNGIISEYELYAIHQDGSKDLVASGSDWALDAKDKTVSFAPVEAVGLELKAIAGAGGFGTAAELNVYAYGPIEPAPVYVPVDDRDASLVFTGAWNSDSNGSFYEGTARYTNEIGASVEFTFVGTAIRWYGQNDVNFGAAEVYVDGVLAGEVNVYGPAAAQQLLFEADGLAYGKHTIRIVCVSPVVDFDYFSYVGE
On to B1, for which the Km (in general, the concentration of substrate that gives half-maximal velocity) was found to be 265 ± 43 µM; the kcat (in general, the number of substrate molecules converted per active site and unit of time at saturation) stood at 9.99 s⁻¹; the kcat/Km (in general, the second-order rate constant that governs catalysis at low substrate concentration) turned out to be 37590 M⁻¹ s⁻¹.
